# According to patent US20260184782A1 (TWIST BIOSCIENCE, published 2026):
# Like-named read-outs stand apart in the source and are kept apart here.
# T1: TIGIT (UniProt Q495A1 22-141, limits assumed)
# T1 construct: also called T cell immunoreceptor with Ig and ITIM domains; hTIGIT
# T1 sequence (looked up): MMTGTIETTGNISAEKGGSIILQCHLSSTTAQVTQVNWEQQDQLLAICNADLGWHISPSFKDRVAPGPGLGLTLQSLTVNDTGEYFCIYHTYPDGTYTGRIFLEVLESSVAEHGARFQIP
# T2: TIGIT on PBMCs (UniProt Q495A1 22-244, limits assumed)
# T2 sequence (looked up): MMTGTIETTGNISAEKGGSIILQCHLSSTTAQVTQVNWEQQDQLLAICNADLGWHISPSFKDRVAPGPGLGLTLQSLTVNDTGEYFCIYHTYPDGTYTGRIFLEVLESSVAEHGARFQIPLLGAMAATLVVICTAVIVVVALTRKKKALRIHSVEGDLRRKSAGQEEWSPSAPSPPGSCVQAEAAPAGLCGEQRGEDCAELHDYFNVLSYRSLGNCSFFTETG
# T3: human TIGIT-Fc (human, UniProt Q495A1 22-141, limits assumed)
# T3 construct: not shown: Fc; not described
# T3 sequence (looked up): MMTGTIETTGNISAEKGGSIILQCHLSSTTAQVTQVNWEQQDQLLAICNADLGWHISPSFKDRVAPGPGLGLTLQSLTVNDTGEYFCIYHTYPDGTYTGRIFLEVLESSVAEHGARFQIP
# Legend:
# TIGIT [1] = molecular target: T1, TIGIT; assay: ELISA; set-up: unit not given here
# TIGIT [2] = molecular target: T1, TIGIT; assay: SPR (Carterra)
# TIGIT on PBMCs = molecular target: T2, TIGIT on PBMCs; assay: cell-based or functional assay
# human TIGIT-Fc [3] = molecular target: T3, human TIGIT-Fc; assay: CD155 competition ELISA, titration
# Description: (§1) TIGIT/CD155 inhibition of VHH-Fcs were assessed using an ELISA assay (Table 10B). Briefly, human TIGIT-Fc was coated on a plate & then incubated with VHH-Fcs and human CD155-biotin. Bound CD155-biotin was detected using a streptavidin-HRP conjugate visualized with TMB. Strong inhibitors from the single point screen were titrated to determine EC50 (Table 10C).
# human TIGIT-Fc [4] = molecular target: T3, human TIGIT-Fc; assay: CD155 competition ELISA, single point; further: test concentration or dose not given here
# Description: as §1
# TIGIT [5] = molecular target: T1, TIGIT; assay: SPR (Carterra); remark: listed apart in the source
# TIGIT [6] = molecular target: T1, TIGIT; assay: TIGIT:CD155 blockade assay, competitor CD155
Binder,ELISA (TIGIT [1]),Kd (TIGIT [2]) [nM],koff (TIGIT [2]) [s⁻¹],kon (TIGIT [2]) [M⁻¹ s⁻¹],T-cell activation EC50 (TIGIT on PBMCs) [nM],EC50 (human TIGIT-Fc [3]) [nM],OD (450 nm) (human TIGIT-Fc [4]) [OD],Kd (TIGIT [5]) [nM],RU (TIGIT [5]) [RU],koff (TIGIT [5]) [s⁻¹],kon (TIGIT [5]) [M⁻¹ s⁻¹],IC50 (TIGIT [6]) [nM]
"TIGIT-211-42 (antibody, V domains shown) VH: EVQLLESGGGLVQPGGSLRLSCAASGFTFNHYGMGWVRQAPGKGLEWVSYISSSGSSTYYADSVKGRFTISRDNSKNTLYLQMNSLRAEDTAVYYCAKGWLGNFDYWGQGTLVTVSS VL: DIQMTQSPSSLSASVGDRVTITCRASQGVRTSLAWYQQKPGKAPKLLIYGKNIRPSGVPSRFSGSGSGTDFTLTISSLQPEDFATYYCQQSYSFPLTFGQGTKVEIK",8,66.1,0.000643,9740,,,,,,,,
"TIGIT-211-51 (antibody, V domains shown) VH: EVQLLESGGGLVQPGGSLRLSCAASGFTFHKYGMAWVRQAPGKGLEWVSTISSGGGYTYYPDSVKGRFTISRDNSKNTLYLQMNSLRAEDTAVYYCARDTYLHFDYWGQGTLVTVSS VL: DIQMTQSPSSLSASVGDRVTITCRASQGVRTSLAWYQQKPGKAPKLLIYAKNNRPSGVPSRFSGSGSGTDFTLTISSLQPEDFATYYCQQSYSAPYTFGQGTKVEIK",10.7,96.5,0.0335,347000,,,,,,,,
"TIGIT-211-43 (antibody, V domains shown) VH: EVQLLESGGGLVQPGGSLRLSCAASGFTFYDYTMDWVRQAPGKGLEWVSAISGSGGGTSYADSVKGRFTISRDNSKNTLYLQMNSLRAEDTAVYYCARRHWPGGFDYWGQGTLVTVSS VL: DIQMTQSPSSLSASVGDRVTITCRASQSIRRYLNWYQQKPGKAPKLLIYWASDRESGVPSRFSGSGSGTDFTLTISSLQPEDFATYYCQQSFSTPLTFGQGTKVEIK",12,819,0.00117,1430,,,,,,,,
"TIGIT-211-69 (antibody, V domains shown) VH: EVQLLESGGGLVQPGGSLRLSCAASGFTFGNYRMTWVRQAPGKGLEWVGVIWGGGGTYYADSVKGRFTISRDNSKNTLYLQMNSLRAEDTAVYYCARIFSYALDYWGQGTLVTVSS VL: DIQMTQSPSSLSASVGDRVTITCRASQNIRSYLNWYQQKPGKAPKLLIYGASTLQSGVPSRFSGSGSGTDFTLTISSLQPEDFATYYCQQSYENPLTFGQGTKVEIK",7.9,3040,0.0622,20400,,,,,,,,
"TIGIT-211-40 (antibody, V domains shown) VH: EVQLLESGGGLVQPGGSLRLSCAASGFTFSRYAMNWVRQAPGKGLEWVSEISPSGKKKYYADSVKGRFTISRDNSKNTLYLQMNSLRAEDTAVYYCAKSSFDKYNFDYWGQGTLVTVSS VL: DIQMTQSPSSLSASVGDRVTITCRASQDIGNFLNWYQQKPGKAPKLLIYRTSWLQSGVPSRFSGSGSGTDFTLTISSLQPEDFATYYCQQRSSYPPTFGQGTKVEIK",10.2,392,0.0405,103000,,,,,,,,
"TIGIT-211-57 (antibody, V domains shown) VH: EVQLLESGGGLVQPGGSLRLSCAASGLTFPNYGMGWVRQAPGKGLEWVSAISREGRATYYADSVKGRFTISRDNSKNTLYLQMNSLRAEDTAVYYCARVIAAAGAFDYWGQGTLVTVSS VL: DIQMTQSPSSLSASVGDRVTITCRSSQSLVHSTGNTYLHWYQQKPGKAPKLLIYGKNIRPSGVPSRFSGSGSGTDFTLTISSLQPEDFATYYCQQSYTTPWTFGQGTKVEIK",12.4,3400,0.105,30800,,,,,,,,
"TIGIT-471-001 (antibody, V domains shown, Variable domains only) VH: EVQLLESGGGLVQPGGSLRLSCAASGFTFSNYGVSWVRQAPGKGLEWVGYINPSRGYTYYADSVKGRFTISRDNSKNTLYLQMNSLRAEDTAVYYCARSYGGGFDYWGQGTLVTVSS VL: DIQMTQSPSSLSASVGDRVTITCRASQTIERRLNWYQQKPGKAPKLLIYDASSLHTGVPSRFSGSGSGTDFTLTISSLQPEDFATYYCQQSYIIPPTFGQGTKVEIK",,,,,,,,61.3,175,0.022,359000,9.6
"TIGIT-211-45 (antibody, V domains shown) VH: EVQLLESGGGLVQPGGSLRLSCAASGFTFRRYVMGWVRQAPGKGLEWVSEISPSGGYTYYADSVKGRFTISRDNSKNTLYLQMNSLRAEDTAVYYCAKRWTFNTAFDYWGQGTLVTVSS VL: DIQMTQSPSSLSASVGDRVTITCRASQSIRRYLNWYQQKPGKAPKLLIYDASNLQSGVPSRFSGSGSGTDFTLTISSLQPEDFATYYCQQSYDFPRTFGQGTKVEIK",8.8,105,0.00125,11900,,,,,,,,

# Further lines, results first:
ELISA (TIGIT [1]),Kd (TIGIT [2]) [nM],koff (TIGIT [2]) [s⁻¹],kon (TIGIT [2]) [M⁻¹ s⁻¹],T-cell activation EC50 (TIGIT on PBMCs) [nM],EC50 (human TIGIT-Fc [3]) [nM],OD (450 nm) (human TIGIT-Fc [4]) [OD],Kd (TIGIT [5]) [nM],RU (TIGIT [5]) [RU],koff (TIGIT [5]) [s⁻¹],kon (TIGIT [5]) [M⁻¹ s⁻¹],IC50 (TIGIT [6]) [nM],Binder
,,,,13.5,0.57,0.0858,,,,,,"Tiragolumab (antibody, V domains shown) VH: EVQLQQSGPGLVKPSQTLSLTCAISGDSVSSNSAAWNWIRQSPSRGLEWLGKTYYRFKWYSDYAVSVKGRITINPDTSKNQFSLQLNSVTPEDTAVFYCTRESTTYDLLAGPFDYWGQGTLVTVSS VL: not shown"
,,,,,,,395,93.7,0.0484,123000,3.2,"TIGIT-471-035 (antibody, V domains shown, Variable domains only) VH: EVQLLESGGGLVQPGGSLRLSCAASGFTFNAYPMTWVRQAPGKGLEWVSAITGSGGSTYYADSVKGRFTISRDNSKNTLYLQMNSLRAEDTAVYYCARVWRNHLDYWGQGTLVTVSS VL: DIQMTQSPSSLSASVGDRVTITCSGDKLGHTYTSWYQQKPGKAPKLLIYRASTLASGVPSRFSGSGSGTDFTLTISSLQPEDFATYYCQQGYTLPWTFGQGTKVEIK"
,,,,,,,7290,1080,0.269,36900,14.4,"TIGIT-471-011 (antibody, V domains shown, Variable domains only) VH: EVQLLESGGGLVQPGGSLRLSCAASGFTFSNYGVSWVRQAPGKGLEWVSSIDWHGWVTYYADSVKGRFTISRDNSKNTLYLQMNSLRAEDTAVYYCVKNALRFDYWGQGTLVTVSS VL: DIQMTQSPSSLSASVGDRVTITCSASQDINKYLNWYQQKPGKAPKLLIYHTSRLQSGVPSRFSGSGSGTDFTLTISSLQPEDFATYYCQQVVWRPFTFGQGTKVEIK"
,,,,,,,60,57.5,0.00926,154000,13.5,"TIGIT-471-027 (antibody, V domains shown, Variable domains only) VH: EVQLLESGGGLVQPGGSLRLSCAASGFTFSNYGVSWVRQAPGKGLEWVSWISPHGALTYYADSVKGRFTISRDNSKNTLYLQMNSLKAEDTAVYYCAKGRRRFDYWGQGTLVTVSS VL: DIQMTQSPSSLSASVGDRVTITCRASQTISSYLNWYQQKPGKAPKLLIYENNNRPSGVPSRFSGSGSGTDFTLTISSLQPEDFATYYCQQSYIIPPTFGQGTNVEIK"
,,,,,,,164,156,0.0565,344000,13.6,"TIGIT-471-019 (antibody, V domains shown, Variable domains only) VH: EVQLLESGGGLVQPGGSLRLSCAASGFTFSNYGVSWVRQAHGKGLEWVVYINPSRGYTYYADSVKGRFSISRDNSKNTLYLQMNSLRAEDTAVYYCARSYGGGFDYWGQGTLVTVSS VL: DIQMTQSPSSLSASVGDRVTITCRASQTIERRLNWYQQKPGKAPKLLIYDASSLHTGVPSRFSGSGSGTDFTLTISSLQPEDFATYYCQQSYIIPPTFGQGTKVEIK"
,,,,,,,55.4,78,0.0122,221000,5.9,"TIGIT-471-038 (antibody, V domains shown, Variable domains only) VH: EVQLLESGGGLVQPGGSLRLSCAASGFTFSNYGVSWVRQAPGKGLEWVGYINPSRGYTYYADSVKGRFTISRDNSKNTLYLQMNSLRAEDTAVYYCARSYGGGFDYWGQGTLVTVSS VL: DIQMTQSPSSLSASVGDRVTITCRASQTIERRLNWYQQKPGKAPKLLIYDASSLHTGVSSRFSGSGSGTYFTLTISSLQAEDFATYYCQQSYIIPPTFGQGTKVEIK"
,,,,,,,51.4,122,0.0192,373000,9.8,"TIGIT-471-048 (antibody, V domains shown, Variable domains only) VH: EVQLLESGGGLVQPGGSLRLSCAASGFTFSNYGVSWVRQAPGKGLEWVGYINPSRGYTYYADSVKGRFTISRDNSKNTLYLQMNSLRAEDTAVYYCARSYGGGFDYWGQGTLVTVSS VL: DIQMTQSPSSLSASVGDRVTITCGASQTIERRLNWYQQKPGKAPKLLIYDASSLHTGVPSRISGSGSGTDFTLTISSLQPEHFATYYCQQSYIIPPTFGQGTKVEIK"
